System: Escherichia coli TOP10
Assay: shrunken log2 fold change of peptide-encoding DNA abundance (4.5 h post-induction vs induction); higher = less antimicrobial activity (less host growth inhibition)
Conditions: time post-induction: 4.5 h; library: site-saturation at positions 5, 18, 19, 20
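Also: peptides expressed intracellularly from a pBAD plasmid library in pooled LB shake-flask culture, induced with 0.3% L-arabinose, DNA abundance read by NGS, three biological replicates, DESeq2 with apeglm shrinkage.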

Sequence	shrunken log2 fold change
RRIRLRPPRLPRPRPRPHYAPRP	-0.133
RRIRNRPPRLPRPRPRPDHNPRP	-0.245
RRIRSRPPRLPRPRPRPNVNPRP	0.259
RRIRYRPPRLPRPRPRPHWAPRP	-0.24
RRIRVRPPRLPRPRPRPYTMPRP	-0.49
RRIRIRPPRLPRPRPRPFWWPRP	0.0783
RRIRQRPPRLPRPRPRPFLCPRP	-0.336
RRIRYRPPRLPRPRPRPAQAPRP	0.0486
RRIRARPPRLPRPRPRPFGKPRP	0.0252
RRIRYRPPRLPRPRPRPRKSPRP	0.117
RRIRFRPPRLPRPRPRPCDLPRP	-0.142
RRIRIRPPRLPRPRPRPKACPRP	0.0544
RRIRYRPPRLPRPRPRPYPGPRP	-0.379
RRIRLRPPRLPRPRPRPVLYPRP	-0.239
RRIRDRPPRLPRPRPRPQTRPRP	0.138
RRIRQRPPRLPRPRPRPEHAPRP	0.0519
RRIRNRPPRLPRPRPRPGYCPRP	-0.369
RRIRCRPPRLPRPRPRPMQEPRP	-0.0194
RRIRPRPPRLPRPRPRPYGIPRP	-0.533
RRIRQRPPRLPRPRPRPFKIPRP	-0.00995
RRIRKRPPRLPRPRPRPCMRPRP	0.0327
RRIRQRPPRLPRPRPRPWGYPRP	-0.166
RRIRYRPPRLPRPRPRPNGYPRP	0.122
RRIRHRPPRLPRPRPRPHQIPRP	0.0658
RRIRARPPRLPRPRPRPPFGPRP	0.436

Sequence	shrunken log2 fold change
RRIRNRPPRLPRPRPRPLRFPRP	0.426
RRIRSRPPRLPRPRPRPDMLPRP	0.304
RRIRFRPPRLPRPRPRPEYGPRP	-0.621
RRIRERPPRLPRPRPRPVLWPRP	0.153
RRIRIRPPRLPRPRPRPAGTPRP	-0.108
RRIRNRPPRLPRPRPRPMKCPRP	0.0131
RRIRVRPPRLPRPRPRPEVKPRP	0.0366
RRIRFRPPRLPRPRPRPQAHPRP	-0.454
RRIRFRPPRLPRPRPRPTVVPRP	0.174
RRIRWRPPRLPRPRPRPMNHPRP	-0.426
RRIRPRPPRLPRPRPRPCAFPRP	-0.148
RRIRPRPPRLPRPRPRPGARPRP	1.19
RRIRIRPPRLPRPRPRPRMHPRP	-0.0356
RRIRERPPRLPRPRPRPKKKPRP	-0.0784
RRIRRRPPRLPRPRPRPHVVPRP	0.0538
RRIRVRPPRLPRPRPRPDLVPRP	0.211
RRIRARPPRLPRPRPRPRHTPRP	0.419
RRIRFRPPRLPRPRPRPWSPPRP	-0.491
RRIRSRPPRLPRPRPRPQYVPRP	-0.22
RRIRCRPPRLPRPRPRPMGCPRP	-0.0697
RRIRMRPPRLPRPRPRPVQHPRP	0.415
RRIRTRPPRLPRPRPRPWIPPRP	-0.2
RRIRARPPRLPRPRPRPSWFPRP	0.156
RRIRFRPPRLPRPRPRPRTQPRP	1.93
RRIRFRPPRLPRPRPRPWPSPRP	-0.0611

Sequence	shrunken log2 fold change
RRIRARPPRLPRPRPRPQWIPRP	-0.0374
RRIRKRPPRLPRPRPRPEWSPRP	0.0885
RRIRSRPPRLPRPRPRPWHTPRP	-0.348
RRIRCRPPRLPRPRPRPPQAPRP	0.735
RRIRCRPPRLPRPRPRPVNCPRP	-0.0215
RRIRVRPPRLPRPRPRPNWDPRP	-0.0621
RRIRPRPPRLPRPRPRPEIMPRP	-0.0268
RRIRNRPPRLPRPRPRPGKRPRP	0.00355
RRIRPRPPRLPRPRPRPMGEPRP	-0.231
RRIRIRPPRLPRPRPRPWAMPRP	-0.493
RRIRMRPPRLPRPRPRPADVPRP	0.0241
RRIRWRPPRLPRPRPRPWGMPRP	-0.246
RRIRMRPPRLPRPRPRPITLPRP	-0.521
RRIRVRPPRLPRPRPRPPDFPRP	0.0119
RRIRKRPPRLPRPRPRPAFVPRP	0.423
RRIRCRPPRLPRPRPRPCCSPRP	-0.321
RRIRGRPPRLPRPRPRPKGAPRP	1.06
RRIRSRPPRLPRPRPRPVPIPRP	0.129
RRIRHRPPRLPRPRPRPGCYPRP	0.0554
RRIRCRPPRLPRPRPRPDCVPRP	0.184
RRIRYRPPRLPRPRPRPSAAPRP	-0.222
RRIRLRPPRLPRPRPRPCDSPRP	-0.165
RRIRLRPPRLPRPRPRPFAVPRP	-0.0849
RRIRKRPPRLPRPRPRPMSTPRP	0.41
RRIRSRPPRLPRPRPRPMVPPRP	-0.0173

Sequence	shrunken log2 fold change
RRIRYRPPRLPRPRPRPRMYPRP	-0.627
RRIRTRPPRLPRPRPRPIPRPRP	0.299
RRIRWRPPRLPRPRPRPTYKPRP	-0.467
RRIRPRPPRLPRPRPRPKERPRP	0.128
RRIRNRPPRLPRPRPRPENQPRP	0.216
RRIRNRPPRLPRPRPRPLSSPRP	-0.0989
RRIRFRPPRLPRPRPRPHDEPRP	0.099
RRIRNRPPRLPRPRPRPENNPRP	-0.106
RRIRSRPPRLPRPRPRPNNWPRP	-0.0732
RRIRPRPPRLPRPRPRPWKDPRP	-0.0368
RRIRLRPPRLPRPRPRPWWGPRP	-0.063
RRIRFRPPRLPRPRPRPASMPRP	-0.146
RRIRCRPPRLPRPRPRPADAPRP	1.44
RRIRYRPPRLPRPRPRPQRGPRP	-0.123
RRIRQRPPRLPRPRPRPDVPPRP	0.0169
RRIRCRPPRLPRPRPRPLCKPRP	-0.541
RRIRGRPPRLPRPRPRPTVKPRP	0.642
RRIRARPPRLPRPRPRPQELPRP	0.0199
RRIRFRPPRLPRPRPRPLVTPRP	-0.318
RRIRFRPPRLPRPRPRPDHIPRP	-0.00578
RRIRGRPPRLPRPRPRPEADPRP	1
RRIRVRPPRLPRPRPRPGRHPRP	0.0728
RRIRSRPPRLPRPRPRPMRCPRP	0.361
RRIRPRPPRLPRPRPRPHQQPRP	-0.14
RRIRVRPPRLPRPRPRPFAKPRP	-0.307

Sequence	shrunken log2 fold change
RRIRTRPPRLPRPRPRPVNLPRP	-0.0397
RRIRDRPPRLPRPRPRPQKAPRP	0.0864
RRIRNRPPRLPRPRPRPRWLPRP	0.558
RRIRCRPPRLPRPRPRPLCNPRP	-0.244
RRIRTRPPRLPRPRPRPSPIPRP	-0.733
RRIRTRPPRLPRPRPRPSALPRP	-0.178
RRIRPRPPRLPRPRPRPTNCPRP	-0.169
RRIRPRPPRLPRPRPRPTMRPRP	0.744
RRIRGRPPRLPRPRPRPWWEPRP	0.0256
RRIRWRPPRLPRPRPRPPATPRP	1.06
RRIRKRPPRLPRPRPRPVAGPRP	0.127
RRIRMRPPRLPRPRPRPCMLPRP	0.303
RRIRMRPPRLPRPRPRPAGLPRP	0.47
RRIRFRPPRLPRPRPRPCNVPRP	-0.01
RRIRARPPRLPRPRPRPRENPRP	1.06
RRIRWRPPRLPRPRPRPTMSPRP	-0.065
RRIRERPPRLPRPRPRPQTWPRP	0.138
RRIRFRPPRLPRPRPRPCKNPRP	0.0492
RRIRFRPPRLPRPRPRPVFIPRP	-0.811
RRIRVRPPRLPRPRPRPISFPRP	0.0233
RRIRMRPPRLPRPRPRPGQIPRP	-0.00968
RRIRKRPPRLPRPRPRPSIVPRP	-0.059
RRIRWRPPRLPRPRPRPYVYPRP	0.0229
RRIRSRPPRLPRPRPRPDLFPRP	0.256
RRIRLRPPRLPRPRPRPVEWPRP	-0.228
